# Measurements reported in patent publication US20150337019A1 (MANUKAMED HOLDINGS LIMITED PARTNERSHIP, published 2015).
# The star is where a group is joined. TNBS = trinitrobenzene sulphonic acid, N-terminal block, O=[N+]([O-])c1cc([N+](=O)[O-])c(*)c([N+](=O)[O-])c1; pNA = O=[N+]([O-])c1ccc(N*)cc1
# B1: TNBS-FAK-pNA (peptide)
# peptide: {TNBS}-Phe-Ala-Lys-pNA
# SMILES: C[C@H](NC(=O)[C@H](Cc1ccccc1)Nc1c([N+](=O)[O-])cc([N+](=O)[O-])cc1[N+](=O)[O-])C(=O)N[C@@H](CCCCN)C(=O)Nc1ccc([N+](=O)[O-])cc1
# Molecular target: T1, Cathepsin B from bovine spleen (bovine, UniProt P07688 80-332)
# Experiment: cell-based or functional assay
row,"Cathepsin B inhibition test, 2 mM peptide",Binder
1,96,"H-Cys-Asp-Arg-OH (also: MGO-modified, site not given here) [MGO-modified H-CDR-OH]"
2,143,H-Met-Thr-Arg-OH [H-MTR-OH]
3,119,"Ac-Met-Thr-Arg-OH (also: MGO-modified, site not given here) [MGO-modified Ac-MTR-OH]"
4,122,"{TNBS}-Phe-Ala-Lys-pNA (also: MGO-modified, site not given here) [MGO-modified TNBS-FAK-pNA]"
5,69.2,"Ac-Met-Gln-Lys-OH (also: MGO-modified, site not given here) [MGO-modified Ac-MQK-OH]"
6,126,Ac-Met-Thr-Arg-OH [Ac-MTR-OH]
7,121,Ac-Met-Gln-Lys-OH [Ac-MQK-OH]
8,121,Ac-Cys-Asp-Arg-OH [Ac-CDR-OH]
9,99.3,B1
10,165,H-Cys-Asp-Arg-OH [H-CDR-OH]
11,78.5,"Ac-Cys-Asp-Arg-OH (also: MGO-modified, site not given here) [MGO-modified Ac-CDR-OH]"
12,99.5,"H-Met-Gln-Lys-OH (also: MGO-modified, site not given here) [MGO-modified H-MQK-OH]"
13,104,"H-Met-Thr-Arg-OH (also: MGO-modified, site not given here) [MGO-modified H-MTR-OH]"

# Molecular target: T1, Cathepsin B from bovine spleen
# Experiment: cell-based or functional assay
# Remark: another data set of the same source
row,"Cathepsin B inhibition test, 2 mM peptide",Binder
1,162,Ac-QNDNR-OH [Ac-QNDNR-OH]
2,162,H-QNDNR-OH [H-QNDNR-OH]
3,171,H-QNGNK-OH [H-QNGNK-OH]
4,167,Ac-QNDNK-OH [Ac-QNDNK-OH]
5,104,H-QNDNK-OH [H-QNDNK-OH]
6,132,"Ac-QNDNR-OH (also: MGO-modified, site not given here) [MGO-modified Ac-QNDNR-OH]"
7,89.2,"Ac-QNGNK-OH (also: MGO-modified, site not given here) [MGO-modified Ac-QNGNK-OH]"
8,68.4,"H-QNDNK-OH (also: MGO-modified, site not given here) [MGO-modified H-QNDNK-OH]"
9,74.4,H-QNGNR-OH [H-QNGNR-OH]
10,119,"H-QNGNK-OH (also: MGO-modified, site not given here) [MGO-modified H-QNGNK-OH]"
11,85,"H-QNGNR-OH (also: MGO-modified, site not given here) [MGO-modified H-QNGNR-OH]"
12,122,"Ac-QNDNK-OH (also: MGO-modified, site not given here) [MGO-modified Ac-QNDNK-OH]"
13,88.7,"Ac-QNGNR-OH (also: MGO-modified, site not given here) [MGO-modified Ac-QNGNR-OH]"
14,187,Ac-QNGNK-OH [Ac-QNGNK-OH]
15,101,Ac-QNGNR-OH [Ac-QNGNR-OH]

# Molecular target: T1, Cathepsin B from bovine spleen
# Experiment: cell-based or functional assay
# Remark: another data set of the same source
row,"Cathepsin B inhibition test, 2 mM peptide",Binder
1,142,Ac-Leu-Leu-Lys-OH [Ac-LLK-OH]
2,72.6,"Ac-Leu-Ile-Arg-NH2 (also: MGO-modified, site not given here) [MGO-modified Ac-LIR-NH2]"
3,92.7,Ac-Leu-Val-Lys-NH2 [Ac-LVK-NH2]
4,128,Ac-Leu-Ile-Arg-OH [Ac-LIR-OH]
5,159,Ac-Leu-Leu-Lys-NH2 [Ac-LLK-NH2]
6,80,"Ac-Leu-Val-Lys-NH2 (also: MGO-modified, site not given here) [MGO-modified Ac-LVK-NH2]"
7,80.8,"Ac-Leu-Val-Lys-OH (also: MGO-modified, site not given here) [MGO-modified Ac-LVK-OH]"
8,144,Ac-Leu-Val-Lys-OH [Ac-LVK-OH]
9,0.07,"Ac-Leu-Ile-Arg-OH (also: MGO-modified, site not given here) [MGO-modified Ac-LIR-OH]"
10,65.4,Ac-Leu-Ile-Arg-NH2 [Ac-LIR-NH2]
11,148,"Ac-Leu-Leu-Lys-OH (also: MGO-modified, site not given here) [MGO-modified Ac-LLK-OH]"
